The values below come from the nanobody polyreactivity screen of Harvey et al. (2022).

This data set is described as follows: yeast display, Sf9 membrane polyspecificity reagent, FACS + sequencing; frameworks hold sequencing errors. The gist of the method:
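Galactose induction of a Saccharomyces cerevisiae BJ5465 synthetic nanobody display library ran 36–48 hours. The cells were then stained for 1 hour at 4 °C with 10% biotinylated, detergent-solubilized Sf9 membrane reagent, pulled down on streptavidin microbeads and FACS-sorted into low and high (top ~1%) gates on expression and reagent-binding fluorescence. Labels for polyreactivity follow the gate of origin.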
“QVQRVESGGGLVQAGGSLRLSCAASGSTFKKYVMGWYRPAPGKERELVAAISGRGGSTYYADSVKGRFTISRDNAKNTVYLQMNSLKPEDTAVYYCNARKQTARFDSWGQGTQVTVSS”: the “polyreactivity (PSR sort gate)” value was “high polyreactivity”.

As for “QVQLVDSGGGLVQAGGSLRLSCAASGGTFQGNAMGWYRQAPGKEREFVATITRGGGSKYYADSVKGRFTISRDNAKNTVYLQMNSLKPEDTAVYFCNAYLVSRYPGDYWGQGTQVTVSP”, the “polyreactivity (PSR sort gate)” value is “high polyreactivity”.

For the sequence “QGHLVESGGGLVQAGGSRRLSCAASGRIFSPYALGWSRQGPGKERELVAAISSDDGITYYADSVKRRFTISRDNAKNTVYFQMNSLKPEDTAVYYCAADSGTRPAGDYWGQGTQVTVSS”, the “polyreactivity (PSR sort gate)” value was “low polyreactivity”.

As to “QVQLVESGGGLVQAGGSLRLSCAASGSTFYVYAMGWYRQAPGKERELVATISSGGITNYADSVKGRFTISRDNAMNTVYLQMNSLKPEDTAVYYCNAKKAYYGRGMNYWGQGTQVTVSS”, the “polyreactivity (PSR sort gate)” value is recorded as “low polyreactivity”.

On to “QVQLVESGGGLVQAGGSLRLSCAASGFIFRGYGMGWYRQAPGKERELVASITTGGRTNYADSVKGRFTISRDNAKNTVYVQMNSLKPEDTAVYYCAATYYLRLRRPYWQGFNYWGQGTQVTVSS”, for which the “polyreactivity (PSR sort gate)” value is on record as “high polyreactivity”.

On to “QVQLVESGGGLVQAGGSLRLSCAASGLTINPNAMGWYRPAPGKERELVAAIDWSGGSTYCADSVKGRFTISRDNAKNTVYLQMNSLKPEDTAVYYSAADPPDRLFLYDYWGQGTQVTVSS”, for which the “polyreactivity (PSR sort gate)” value is reported as “low polyreactivity”.

With “QVQLVESGGGLVQAGGSLRLSCAASGRTFSYYAMGCYRQAPGKERELVAAISQRGGSTYYADSVKGRFTISRDNAKNTVYLQMNSLKPEDTAVYYCAVLVSRYRYRVLDDYWGQGTQVTVSS”, the “polyreactivity (PSR sort gate)” value was “high polyreactivity”.

“QVQLVESGGGLVQAGGSLRLSCAASGRTFDYNTMGWYRPAPGKDRELVAAISASGGSTYYADSVKGRFTISRDNAKNTVYLQMNSLKPEDTAVYYCNTYAGVEYYHWGQGTQVTVSS”: the “polyreactivity (PSR sort gate)” value is “low polyreactivity”.

For “QVQLVESGGGLVQAGGSLRLSCAASGFIFRHYAMGWYRQAPGKARELVAVINWSGSSTYYADSVKGRFTISRDNAKNTVYLQMNSLKPEDTAVYYCAVRSLRVDKYGYWGQGTQVTVSS”, the “polyreactivity (PSR sort gate)” value is given as “high polyreactivity”.

As to “QVQLQESGGGLVLAGGSLRLSCSASGNISVYGSMGWYRQAPGKEREFVATIAPGTNTNYADSVKDRFTISRDNAKNTVYLQMNSLKPEDTAVYYCAARHPSSAYWVGYYWYDYWGQGTQVTVSS”, the “polyreactivity (PSR sort gate)” value is given as “low polyreactivity”.

“QVQLVESGGGLVQAGGSLRLSCAASGSTFVDYAMGWYRQAPGKERELVAAINRSGGRTYYADSVKGRFTISRDNAKNTVYLQMNSLKPEDTAVYYCAAKNPQPDEHGYWGQGTQVTVSS”: the “polyreactivity (PSR sort gate)” value is listed as “high polyreactivity”.

For the sequence “QVHLVESGGGLVQAGGSLRLSCAASGSIIIRNAMGWYRQAPGKERELVATITRSGSTYYADSVKGRFTISRDNAKNTVYLQMNSLKPEDTAVYYFAADWPNLVEYYYWGQGTQVTVSS”, the “polyreactivity (PSR sort gate)” value is recorded as “high polyreactivity”.

Turning to “QVQLVESGGGIVQAGGSLRLSCAASGRTFNHYAMGWYRQAPGKERELVAAITNGGNTYYADSVKGRFTISRDNAKNTVYLQMNSLKPEDTAVYYCAKLYTDAIVWSAYDYWGQGTQVTVSS”, the “polyreactivity (PSR sort gate)” value was “low polyreactivity”.

Regarding “QVQLVESGGGLVQAGGSLRLSCAASGRTFTYYAMGWYRQAPGKERELVATIRSGGTTNYADSVKGRFTISRDNAKNTVYLQMNSLKPEDTAVYYCARVLSYVWYYRDPYQYPDYDYWGQGTQVTVSS”, the “polyreactivity (PSR sort gate)” value is reported as “low polyreactivity”.

As to “QVQLVESGGGLVQAGGSLRLSCAASGSIFRYNAMGWYRQAPGKERELVAAISQSGGRTSYADSVKGRFTISRDNAKNTVYLQMNSLKPEDTAVYYCAKRAYGYRSIYRMDYWGQGTQVTVSS”, the “polyreactivity (PSR sort gate)” value is given as “high polyreactivity”.

With “QVQLVESGGGLVQAGGSLRLSCAASGRIFHWYAMGWYRQAPGKERELVATANTSYADSVKGRFTISRDNAKNTVYLQMNSLKPEDTALYYCATVGPRGRSLGDYWGQGTQVTVSS”, the “polyreactivity (PSR sort gate)” value is reported as “low polyreactivity”.

For “QDQLVESGGGLVQAGGSLRLSCAASGIIFARYAMGWSRPAPGKERELVAAITSGGGSTYYADSVKGRFTISRDNAMNTVYLQMYSLKPEDTAVYYCAADYQTIGWGYDYWGQGTQVTVSS”, the “polyreactivity (PSR sort gate)” value is recorded as “low polyreactivity”.

For the sequence “QVQLVESGGGLVQAGGSLRLSCAASGRISSAYAMGWYRQAPGKERELVAAISSGTRTNYADSVKGRFTMSRDNAKNTVYLQMNSLKPEDTAVYYCNAVPGYVYYYQYWGQGTQVTVSS”, the “polyreactivity (PSR sort gate)” value is given as “high polyreactivity”.

With “QVQLVESGGGLVQAGGSLRFSCAASGSTFFSYAMGWYRQAPGKERELVATIRGSAGRTYYADSVKGRFTISRDHANYTVYLQMNSLKPEDTAVYYCARRYWPGSAYWIYDYWGQGTQVTVSS”, the “polyreactivity (PSR sort gate)” value is on record as “high polyreactivity”.

Regarding “QVQLVESGGGLVQAGGSLRLRCAASGSTSWSNPMGWYRQAPGKERELVAAITTGASTYYADSVKGRFTISRDNAKNTVYLQMNSLKPEDTAVYYCAADPWVLWSYYYWGQGTQVTVSS”, the “polyreactivity (PSR sort gate)” value was “low polyreactivity”.

Take “QVQLVESGGGLVQAGGSLRLSCAASGYTFYSYAMGWYRQEPGKERELVAAIRTGGGTIYADSVKGRFTISRDNAKNTVYLQMNSLKPEDTAVYYCAAESGYPVYTYVSSGDYWGQGTQVTVSS”: the “polyreactivity (PSR sort gate)” value is listed as “low polyreactivity”.

Take “QVQLEESGGGLVQAGGSLRLSCAASGYISRQSAMGWYSQAPGKERELVAAITRGGAGTYYAASVKGRFTISRDNAKHTVYLQMNSLKPEDTAVYYCAKTWVSRDVEYDYWGQGTQVTVSS”: the “polyreactivity (PSR sort gate)” value is reported as “low polyreactivity”.

“QVQIVESGGGLVQEGGSLRLSCAASGFIFRRNAMGWYRQAPGKERELVAAISSRGGTTHYADSVKGRFTISRDNAKNTVYLQMNSLKPEDSSVYYCATTPQRGGLGGVDYWGQGTQVTVSS”: the “polyreactivity (PSR sort gate)” value is listed as “high polyreactivity”.

“QVQLVESGGGLVQAGGSLRLSCAASGFTFGYYAMGWYRQAPGKERELVARISRRGGTTYYADSVKGRFTISRDNAKTTVYLQMNSLKPEDTAVYYCATDGVWNRINRYDYWGQGTQVTVSS”: the “polyreactivity (PSR sort gate)” value is recorded as “high polyreactivity”.

For the sequence “QVQLVESGGGLVQAGGSLRLSCAASGSIIDRNAMGWYRQAPGKERELVAAITSGGSTYYADSVKGRFTISRDNAKHTDYLKLNSLKPEDTAVYYCNADTDPPVPLYYWGQGSQVTVSS”, the “polyreactivity (PSR sort gate)” value was “low polyreactivity”.

As to “QVHLVESGGGLVQAGGSLRLSCAASGSTFRLYAMRWNRQAPGKERELVASITFSDSNTSYADSVKGRFTISRDNAKNTVYLQMNSLKPEDTAVYYCAKETSYENVVYTFDYDYWGQGTQVTVSS”, the “polyreactivity (PSR sort gate)” value is reported as “low polyreactivity”.

With “QVQLVESGGGLVQAGGSLRLSCAASGLIFASYAMGWYRQAPGKERELVAAISWSGGSTYYADSVKGRFTISRDNAKNTVYLQMNSLKPEDTAVYYCAAKRYAYGSLDYWGQGTQVTVSS”, the “polyreactivity (PSR sort gate)” value is “high polyreactivity”.

On to “QVQLVESGGGLVQAGGSLRLSCADSGFIFYDYTMGWYRQAPGKERELVAVISRGGSTYYADSVKGRFTISRDNAKNTVYLQMNSLNPEDSAVYYCAARPRWYTFTRQEYDYWGQGTQVTVSS”, for which the “polyreactivity (PSR sort gate)” value is listed as “high polyreactivity”.

As for “QVQLVESGGGLVQAGGSLRLSCAPSGIIFYAYAMGWYRQAPGKEREFVAAINNSGGRTYYADSVKGRFTISRDNAKNTVYLQMNSLKPEDTAVYYCAVYSYYRRTYRREMDYWGQGTQVTVSS”, the “polyreactivity (PSR sort gate)” value is “high polyreactivity”.

Consider “QVQLVESGGGLVQAGGSLRLSCAASGIIFPPYAMGWYRQAPGKEREFVAGITSSGGTYYADSVKGRFTISRDNAKNTVFLQMNSLKPDDTAVYYCAARQGNLRRGFRWFNYWGQGTQVTVSS”, for which the “polyreactivity (PSR sort gate)” value is reported as “high polyreactivity”.

Take “QVQLVESGGGLVQAGGSLRLSCAASGSIFYGNAMGWYRQAPGKERELVAAITRRGGRTYYADSVKGRFTISRDNAKNTVYLQMNSLKPEDTAVYYCNKDVGVAVEMGYWGQGTQVTVSS”: the “polyreactivity (PSR sort gate)” value is on record as “high polyreactivity”.

Regarding “QVQLGESGGGLVQAGGSLRLSCAASGRTCWPYARGWYRQAPGKEMELVAAISRGDRTHYADSVKGRFTISRDNAKKTVYLQMNSLIPEVTAVFYCAADSRYYYYVYKISGDYDSWGQGTHVTVSS”, the “polyreactivity (PSR sort gate)” value was “low polyreactivity”.

Turning to “QVQLVESGGGLDQAGGSLRLSCAASGRIFVGYARGWYRQAPVKERELVASITGRGTSTYYADSVKGRFTISRDNAKNTVYLQMNSLKPEDTAVYYCNALYRKYRNQWYISNYGYYYWGQGTQVTVSS”, the “polyreactivity (PSR sort gate)” value was “low polyreactivity”.

For the sequence “QVQLVESGGGLVKAGGSLRLRGAASGSIFGRYAMGWYRQAPGKERELVAAISKNGGSTYYADSVKGRFTISRDNAKNTVYLQMNILKPEDTAVYYCNTVRYSGNYRDQEGDYWGQGTQVTVSS”, the “polyreactivity (PSR sort gate)” value is on record as “high polyreactivity”.

“QVQLVESGGGLVQAGGSLRLICAASGSTFRNYAMGWYRQAPGKEREFVAAITWSGGRTYYADSVKGRFTISRDNAKNTVYLQMNSLKPEDTAVYYCAARYRRGYDYWGQGTQVTVSS”: the “polyreactivity (PSR sort gate)” value was “high polyreactivity”.

Consider “QVQVVESGGGLVQAGGSLRLSCAASGSTFYRYAMGWYRQAPGKERELVAAITRGGGRTYYADSVKGRFTISRDHAKNTVYLQMNSLKPEDSAVYYCNAASPYYDSWGQGTQVTVSS”, for which the “polyreactivity (PSR sort gate)” value is “high polyreactivity”.

Consider “QVQLVESVGGLLQAGGSLRLSCAASGSIFDVYTMGWYRQAPGKVRELFAAINTGGGSTYYADSVKGRFTISRDNAKNTVYCQMNSLKPEVTAVYYCAASVYHYGPLYYWGQGTQVTVSS”, for which the “polyreactivity (PSR sort gate)” value is given as “low polyreactivity”.

Regarding “QVQLVESGGGLVQAGGSLRISCAASGRIFVGYAMGWYRQAPGKERELVAAINRSGSSTYYADSVKGRFTISRDNAKNTVYLQMNSLKPEDTAVYYCNARSGNRYGPRYDYWGQGTQVTVSS”, the “polyreactivity (PSR sort gate)” value is reported as “high polyreactivity”.

On to “QVQLVESGGGLVQAGGSLRLSCAASGSILYYYAMGWYRQAPVKERELVATITSGGTTNYADSVKGRFTISRDNAKNTVYLQMISLKPEDTAVYYCAADWAWDTKSAPAYPRAYDYWGPGTQVTVSS”, for which the “polyreactivity (PSR sort gate)” value was “low polyreactivity”.

“QVQLVESGGGLVQAGGSLRLSCAASGFIFYRYAMGWYRQQPGKERELVAAISSRGGTTYYADSVKWRFTISRDNAKNTVYLQMNSLKPEDTAVYYCAADRGYKMGYWLQGTQVTVSS”: the “polyreactivity (PSR sort gate)” value was “high polyreactivity”.

Take “QVQLVESAGALVQAGGSLRLSCAASGPTFSHNAMGWDRQAPGKERELVASIRSGGLTDYADSVKGRFTISRDNAKNTVYLQMTSLKPEDSAVFYCIAEGVWWSTRYDSWGQGTQVTVSS”: the “polyreactivity (PSR sort gate)” value is listed as “low polyreactivity”.
